Laboratory results as given in patent US20230212266A1 (FRED HUTCHINSON CANCER CENTER, published 2023).
Positions count from the first letter of the chain named. Like-named read-outs stand apart in the source and are kept apart here.

Assays:
Test in all cases: BLI, mAb on anti-human Fc probe, antigen in solution
[1] = biological target: T1, SARS-CoV-2 receptor binding domain (RBD) (SARS-CoV-2, UniProt P0DTC2 319-591)
[2] = biological target: T1, SARS-CoV-2 receptor binding domain (RBD); remark: listed apart in the source
[3] = biological target: T1, SARS-CoV-2 receptor binding domain (RBD); remark: listed apart in the source
[4] = biological target: T1, SARS-CoV-2 receptor binding domain (RBD); remark: listed apart in the source
[5] = biological target: T1, SARS-CoV-2 receptor binding domain (RBD); remark: listed apart in the source
[6] = biological target: T1, SARS-CoV-2 receptor binding domain (RBD); remark: listed apart in the source
[7] = biological target: T1, SARS-CoV-2 receptor binding domain (RBD); remark: listed apart in the source
[8] = biological target: T1, SARS-CoV-2 receptor binding domain (RBD); remark: listed apart in the source
[9] = biological target: T1, SARS-CoV-2 receptor binding domain (RBD); remark: listed apart in the source
[10] = biological target: T1, SARS-CoV-2 receptor binding domain (RBD); remark: listed apart in the source
[11] = biological target: T1, SARS-CoV-2 receptor binding domain (RBD); remark: listed apart in the source
[12] = biological target: T1, SARS-CoV-2 receptor binding domain (RBD); remark: listed apart in the source
[13] = biological target: T1, SARS-CoV-2 receptor binding domain (RBD); remark: listed apart in the source
[14] = biological target: T1, SARS-CoV-2 receptor binding domain (RBD); remark: listed apart in the source
[15] = biological target: T1, SARS-CoV-2 receptor binding domain (RBD); remark: listed apart in the source
[16] = biological target: T1, SARS-CoV-2 receptor binding domain (RBD); remark: listed apart in the source
[17] = biological target: T1, SARS-CoV-2 receptor binding domain (RBD); remark: listed apart in the source

B1: CV2-9 (antibody, V domains shown)
VH: EVQLVESGGGLIQPGGSLRLSCAASGFTVSSNYMTWVRQAPGKGLEWVSIIYSGGSTYYADSVKGRFTISRDNSKNTLYLQMNSLRAEDTAVYYCAAGYYDSINWGQGTLVTVPS
VL: DIQMTQSPSTLSASVGDRVTITCRASQSISTWLAWYQQKPGKAPKLLIYKASNLESGVPSRFSGSGSGTEFTLTISSLQPDDFATYYCQQYYTYSWTFGQGTKLEIKR
notes: expressed as IgG
- binding result [1]: no binding

B2: CV2-6 (antibody, V domains shown)
VH: QVQLVESGGGVVQPGRSLRLSCAASGFTFSIYAIHWVRQAPGKGLEWVAVISYDGINKYYADAVKGRFTISRDNSKNTLFLQMNSLRTEDTAVYYCARAMGGNYFHAFDIWGQGTMVTVSS
VL: EIVLTQSPGTLSLSPGERATLSCRASQSVSSSYLAWYQRKPGQAPRLLIYGASNRATGIPDRFSGSGSGTDFTLTISRLEPEDFAVFYCQQYGSSPWTFGQGTKVEIK
notes: expressed as IgG
- binding result [2]: no binding

B3: CV48 (antibody, V domains shown)
VH: QVQLVQSGAEVKKPGSSVKVSCKASGGTFSSYTINWVRQAPGQGLEWMGRIIPILGIADYAQKFQGRVTITADKSTSTAYMELSSLRSEDTAVYYCARDLVEDTAMVTGAAAGTWGQGTLVTVSS
VL: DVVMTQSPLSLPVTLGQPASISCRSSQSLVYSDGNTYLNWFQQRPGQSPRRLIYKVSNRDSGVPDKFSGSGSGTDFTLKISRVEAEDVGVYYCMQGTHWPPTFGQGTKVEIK
notes: expressed as IgG
- binding result [3]: no binding

B4: CV47 (antibody, V domains shown)
VH: QVQLVQSGAEVKKPGASVKVSCKASGYTFTSYGISWVRQAPGQGLEWMGWISAYSGNTNYAQKLQGRVTMTTDTSTSTAYMEVRSLRSDDTAVYYCARVGLWWLGHPDVFDIWGQGTMVTVSS
VL: DIQMTQSPSSLSASVGDRVTITCRASQGIRNDLGWYQQKPGKAPKRLIYAASSLQSGVPSRFSGSGSGTEFTLTISSLQPEDFATYYCLQHNSYPLTFGGGTKVEIK
notes: expressed as IgG
- binding result [4]: no binding

B5: CV2-3 (antibody, V domains shown)
VH: QLQLQESGPGLVKPSETLSLTCTVSGGSISSSTYYWGWIRQPPGKGLEWIGNIYYTGSTYYNPSLKSRVTISVDTSKNHFSLRLSSVTAADTAVYYCARHNRFWSEDTPFDPWGQGTLVTVSS
VL: B4 VL
notes: expressed as IgG
- binding result [5]: no binding

B6: CV2-11 (antibody, V domains shown)
VH: EVQLVESGGGLVKPGGSLRLSCAASGFTFSSYSMNWVRQAPGKGLEWVSSISSSRSYIYYADSVKGRFTISRDNAKNSLYLQMNSLRAEDTAVYYCASNPAADPNTYYYYGMDVWGQGTTVTVSS
VL: QPVLTQPPSASASLGASVTLTCTLSSGYSNYKVDWYQQRPGKGPRFVMRVGTGGIVGSKGDGIPDRFSVLGSGLNRYLTIKNIQEEDESDYHCGADHGSGSNFVGVFGGGTKLTVL
notes: expressed as IgG
- binding result [6]: no binding

B7: CV2-10 (antibody, V domains shown)
VH: QVQLQESGPGLVKPSGTLSLTCAVSGGSISSSTWWSWVRQPPGKGLEWIGEIYHSGSTNYNPSLKSRVTISVDKSKNQFSLKLSSVTAADTAVYYCARSASNYFGYYYYGMDVWGQGTTVTVSS
VL: EIVLTQSPATLSLSPGERATLSCRASQSVSSQLAWYQQKPGQAPRLLISDASNRATGIPARFSGSGSGTDFTLTISSLEPEDFAVYYCQQRSNWPRTFGQGTKVEIK
notes: expressed as IgG
- binding result [7]: no binding

B8: CV6 (antibody, V domains shown)
VH: QVQLVQSGAEVKKPGASVKVSCKVSGYTLTELSMHWVRQAPGKGLEWMGGFDPEDGETIYAQKFQGRVTMTEDTSTDTAYMELSSLRSEDTAVYYCATGPPYCSSTSCEHWFDPWGQGTLVTVSS
VL: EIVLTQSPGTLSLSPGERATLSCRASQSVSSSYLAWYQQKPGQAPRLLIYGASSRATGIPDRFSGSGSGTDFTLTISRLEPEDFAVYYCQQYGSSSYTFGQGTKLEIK
notes: expressed as IgG
- binding result [8]: no binding

B9: CV2-1 (antibody, V domains shown)
VH: QVQLVESGGGVVQPGRSLRLSCAASGFTFSSYAMHWVRQAPGKGLEWVAVISYDGSNKYYADSVKGRFTISRDNSKNTLYLQMNSLRAEDTAIYYCARPYSGSYYAYFDYWGQGTLVTVSS
VL: EIVMTQSPATLSVSPGERATLSCRASQSVSSNLAWYQQKPGQAPRLLIYGASTRATGIPARFSGSGSGTEFTLTISSLQSEDFAVYYCQQYNNWLALTFGGGTKVEIK
notes: expressed as IgG
- binding result [9]: no binding

B10: CV2-8 (antibody, V domains shown)
VH: B9 VH with A23G, T28I, S56N, I93V, S103T, Y105F, A106S, Y107A, Y110I, L116M
VL: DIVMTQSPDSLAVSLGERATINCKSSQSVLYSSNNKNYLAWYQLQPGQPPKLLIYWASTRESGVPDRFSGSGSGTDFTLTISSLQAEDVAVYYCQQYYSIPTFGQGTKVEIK
notes: expressed as IgG
- binding result [10]: no binding

B11: CV2-12 (antibody, V domains shown)
VH: B9 VH with A33G, M34I, S56I, Q82H, I93V, Y100N, Y105H, A106S
VL: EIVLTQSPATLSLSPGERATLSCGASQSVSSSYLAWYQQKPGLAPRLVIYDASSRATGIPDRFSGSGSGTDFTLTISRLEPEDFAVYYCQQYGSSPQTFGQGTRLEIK
notes: expressed as IgG
- binding result [11]: no binding

B12: CV2-4 (antibody, V domains shown)
VH: QVQLVQSGAEVKKPGSSVKVSCKASGGTFSSYAITWVRQAPGQGLEWMGGIIPIFGTANYAQKFQGRVTITADESTSTAYMELSSLRSEDTAVYYCVRVALYDSSGYSPDYWGQGTLVTVSS
VL: EIVLTQSPATLSLSPGERATLSCRASQSVSNFLAWYQQKPGQAPRLLIYDASNRATGIPARFSGSGSGTDFTLTISSLEPEDFAVYYCQHRSNWPPGITFGQGTRLEIK
notes: expressed as IgG
- binding result [12]: no binding

B13: CV2-5 (antibody, V domains shown)
VH: QVQLVQSGAEVKKPGSSVKVSCKASGGTFSSYAISWVRQAPGQGLEWMGGIIPIFGTTNNAQKFQGRVTLTADESTSAAYMELSSLRSEDTAVYYCARIEPYASTGYTFDYWGQGTLVTVSS
VL: B12 VL with N31S, H90Q, G97R
notes: expressed as IgG
- binding result [13]: no binding

B14: CV2-2 (antibody, V domains shown)
VH: EVQLLESGGGLAQPGGSLRLSCAASGFTFSSYAMSWVRQAPGKGLEWVSAISGSGGNTYYADSLKGRFTISRDNSKSTLYLQMNSLRAEDTAVYYCAKGPMWQWLVRLSLVGDYWGQGTLVTVSS
VL: SYVLTQPPSVSVAPGQTARITCGGNNIGSKGVHWYQQKPGQAPVLVVFDDSDRPSGIPERFSGSNSGNTATLTISRVEAGDEADYYCQVWDSTSDHPGYVFGTGTKVTVL
notes: expressed as IgG
- binding result [14]: no binding

B15: CV42 (antibody, V domains shown)
VH: QVQLVQSGAEVKKPGASVKVSCKASGYTFTSYGISWVRQAPGQGLEWMGWISAYNGNTNYAQKVQGRVTMTTDTSTSTAYMELRSLRSDDTAVYYCARDRGYAATFGVFDYWGQGTLVTVSS
VL: DIQMTQSPSSLSASVGDRVTITCRASQSISSYLNWYQQKPGKAPKFLIYAASSLQSGVPSRFSGSGSGTDFTLTISSLQPEDFATYYCQQTYITAFTFGPGTKVDIK
notes: expressed as IgG
- binding result [15]: no binding

B16: CV2-13 (antibody, V domains shown)
VH: EVQLVESGGGLVQPGGSLRLSCAASGFTFSSYEMNWVRQAPGKGLEWVSYISSSGSTIYYADSVKGRFTISRDNAKNSLYLEMNSLRAEDTAVYYCASTSDSGSYYIHWYFDLWGRGTLVTVSS
VL: QSALTQPASVSGSPGQSITISCTGTSSDVGSYNLVSWYQQHPGKAPKLMIYDVSKRPSGVSNRFSGSKSGNTASLTISGLQAEDEADYYCCSHAGSSTSYIFGTGTKVTVL
notes: expressed as IgG
- binding result [16]: no binding

B17: CV44 (antibody, V domains shown)
VH: QVQLVQSGAEVKKPGASVKVSCKASGYTFTSYYMHWVRQAPGQGLEWMGIINPSGGSTSYAQKFQGRVTMTRDTSTSTVYMELSSLRSEDTAVYYCARDLTSTSSSPYSYYYGMDVWGQGTTVTVSS
VL: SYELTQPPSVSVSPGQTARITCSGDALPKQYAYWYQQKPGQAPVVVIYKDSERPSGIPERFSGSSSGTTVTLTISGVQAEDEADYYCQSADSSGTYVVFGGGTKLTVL
notes: expressed as IgG
- binding result [17]: no binding
